Protein | in vitro deacetylation assay (Western blot for acetylated p53) (acetylated p53, P04637) | in vitro deacetylation assay (acetylated tubulin)
Flag-SIRT1 (protein) MADEAALALQPGGSPSAAGADREAASSPAGEPLRKRPRRDGPGLERSPGEPGGAAPEREVPAAARGCPGAAAAALWREAEAEAAAAGGEQEAQATAAAGEGDNGPGLQGPSREPPLADNLYDEDDDDEGEEEEEAAAAAIGYRDNLLFGDEIITNGFHSCESDEEDRASHASSSDWTPRPRIGPYTFVQQHLMIGTDPRTILKDLLPETIPPPELDDMTLWQIVINILSEPPKRKKRKDINTIEDAVKLLQECKKIIVLTGAGVSVSCGIPDFRSRDGIYARLAVDFPDLPDPQAMFDIEYFRKDPRPFFKFAKEIYPGQFQPSLCHKFIALSDKEGKLLRNYTQNIDTLEQVAGIQRIIQCHGSFATASCLICKYKVDCEAVRGDIFNQVVPRCPRCPADEPLAIMKPEIVFFGENLPEQFHRAMKYDKDEVDLLIVIGSSLKVRPVALIPSSIPHEVPQILINREPLPHLHFDVELLGDCDVIINELCHRLGGEYAKLCCNPVKLSEITEKPPRTQKELAYLSELPPTPLHVSEDSSSPERTSPPDSSVIVTLLDQAAKSNDDLDVSESKGCMEEKPQEVQTSRNVESIAEQMENPDLKNVGSSTGEKNERTSVAGTVRKCWPNRVAKEQISRRLDGNQYLFLPPNRYIFHGAEVYSDSEDDVLSSSSCGSNSDSGTCQSPSLEEPMEDESEIEEFYNGLEDEPDVPERAGGAGFGTDGDDQEAINEAISVKQEVTDMNYPSNKS | deacetylation of p53 was observed when the Flag-SIRT1 protein was incubated with acetylated p53 | 
Flag-SIRT2 (protein) MAEPDPSHPLETQAGKVQEAQDSDSDSEGGAAGGEADMDFLRNLFSQTLSLGSQKERLLDELTLEGVARYMQSERCRRVICLVGAGISTSAGIPDFRSPSTGLYDNLEKYHLPYPEAIFEISYFKKHPEPFFALAKELYPGQFKPTICHYFMRLLKDKGLLLRCYTQNIDTLERIAGLEQEDLVEAHGTFYTSHCVSASCRHEYPLSWMKEKIFSEVTPKCEDCQSLVKPDIVFFGESLPARFFSCMQSDFLKVDLLLVMGTSLQVQPFASLISKAPLSTPRLLINKEKAGQSDPFLGMIMGLGGGMDFDSKKAYRDVAWLGECDQGCLALAELLGWKKELEDLVRREHASIDAQSGAGVPNPSTSASPKKSPPPAKDEARTTEREKPQ |  | deacetylation of tubulin was observed when the purified SIRT2 protein was incubated with acetylated tubulin

Chain of acetylated p53, P04637 (P04637 whole entry, looked up): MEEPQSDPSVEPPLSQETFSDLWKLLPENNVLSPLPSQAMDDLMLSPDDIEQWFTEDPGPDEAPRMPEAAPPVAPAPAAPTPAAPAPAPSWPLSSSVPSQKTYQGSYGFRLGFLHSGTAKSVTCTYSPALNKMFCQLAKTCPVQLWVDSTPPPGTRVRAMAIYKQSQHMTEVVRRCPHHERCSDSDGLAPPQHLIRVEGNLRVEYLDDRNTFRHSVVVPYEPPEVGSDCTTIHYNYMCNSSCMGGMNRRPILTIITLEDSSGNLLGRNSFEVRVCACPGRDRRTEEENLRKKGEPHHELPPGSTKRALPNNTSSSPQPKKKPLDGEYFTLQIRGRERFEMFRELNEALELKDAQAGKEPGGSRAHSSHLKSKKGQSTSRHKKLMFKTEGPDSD
